In patent publication US20230190869A1, “PEPTIDE INHIBITORS OF GUANINE NUCLEOTIDE EXCHANGE FACTOR H-1” (UCL Business Ltd, priority 2020, published 2023):
Numbered stars: 1 amine (or outer) side, 2 acyl side, 3 side chain; on linkers, the order of the positions; unused ones are H or OH. Bridge positions count the residues as written; N and C are the ends. Square brackets hold non-standard residues; d marks the D form. Ends that are not written are not given here. Peptide text beside a SMILES is read from it. ξ: configuration not given here. ξαMeNle(6-ylidene) = CC(CCCC=[*:3])(N[*:1])C(=O)[*:2]

Experiments:
[1] = test system: MDCK and HEK293 cells; assay: Cell toxicity: release of LDH in the medium (necrosis); assay type: cell-based
Method: (§1) (A and B) MDCK and HEK293 cells were incubated as described in previous figures with TAT-F1 or TAT-P5. Cell toxicity was then assessed by measuring release of LDH in the medium and caspase 3/7 activity in cell extracts. […] Direct lysis of cells served as a positive control in (A) whereas active caspases were used as controls in (B).
(§2) (A and B) MDCK and HEK293 cells were incubated as described in previous figures with stapled-P5. Cell toxicity was then assessed by measuring release of LDH in the medium and caspase 3/7 activity in cell extracts. […] Direct lysis of cells served as a positive control for LDH release whereas active caspases were used in caspase assays.
(§3) The potency of GEF-H1 inhibitors was analysed in cell-based assays to determine effectiveness of inhibition of GEF-H1 signalling and specificity for GEF-H1, and in cell-based assays modelling epithelial degeneration or inflammatory disease. Potential toxicity of the inhibitors was determined by measuring apoptosis (Caspase3/7 activation) and necrosis (release of […]).

[2] = test system: MDCK and HEK293 cells; assay: Cell toxicity: caspase 3/7 activity in cell extracts (apoptosis); assay type: cell-based
Method: as §1, §2, §3

[3] = test system: interaction between RhoA and constitutively active GEF-H1 (DH/PH module); assay: GST-RhoA pulldown of constitutively active GEF-H1 from cell extracts; assay type: binding; conditions: GST-RhoA pull down, FIG. 5
Method: Recombinant fusion proteins of GST and RhoA were used for pulldown of constitutively active GEF-H1 from cell extracts. (A) Candidate peptide inhibitors were added to the pulldown. (B, C) Recombinant fragments from the CTD of GEF-H1 were added. Note, the further analysed P5 and F1 peptide inhibitors both block the interaction between RhoA and active GEF-H1.
2) Active GEF-H1 binds with high affinity to nucleotide-free and GDP-bound RhoA, its physiological substrate. […] Thus, both F1 and P5 block GEF-H1 function by the same mechanism. Based on these functional and biochemical assays (FIGS. 4 and 5), F1 and P5 were selected for further analysis and refinement. Membrane permeable derivatives were synthesized for both inhibitors: TAT-F1 and TAT-P5.
The P5 sequence and modified versions thereof, are derived from the interaction surface of RhoA with the active site of GEF-H1 (i.e., the DH domain). […] The same is true for the F1 sequence, as it blocks binding of RhoA to a DH/PH domain construct (FIG. 5).

[4] = target: T1, GEF-H1 (Canis lupus familiaris, UniProt Q865S3); assay: GEF-H1 overexpression-induced cell spreading / cell shape morphological assay; assay type: cell-based
T1 sequence (Q865S3 1-986): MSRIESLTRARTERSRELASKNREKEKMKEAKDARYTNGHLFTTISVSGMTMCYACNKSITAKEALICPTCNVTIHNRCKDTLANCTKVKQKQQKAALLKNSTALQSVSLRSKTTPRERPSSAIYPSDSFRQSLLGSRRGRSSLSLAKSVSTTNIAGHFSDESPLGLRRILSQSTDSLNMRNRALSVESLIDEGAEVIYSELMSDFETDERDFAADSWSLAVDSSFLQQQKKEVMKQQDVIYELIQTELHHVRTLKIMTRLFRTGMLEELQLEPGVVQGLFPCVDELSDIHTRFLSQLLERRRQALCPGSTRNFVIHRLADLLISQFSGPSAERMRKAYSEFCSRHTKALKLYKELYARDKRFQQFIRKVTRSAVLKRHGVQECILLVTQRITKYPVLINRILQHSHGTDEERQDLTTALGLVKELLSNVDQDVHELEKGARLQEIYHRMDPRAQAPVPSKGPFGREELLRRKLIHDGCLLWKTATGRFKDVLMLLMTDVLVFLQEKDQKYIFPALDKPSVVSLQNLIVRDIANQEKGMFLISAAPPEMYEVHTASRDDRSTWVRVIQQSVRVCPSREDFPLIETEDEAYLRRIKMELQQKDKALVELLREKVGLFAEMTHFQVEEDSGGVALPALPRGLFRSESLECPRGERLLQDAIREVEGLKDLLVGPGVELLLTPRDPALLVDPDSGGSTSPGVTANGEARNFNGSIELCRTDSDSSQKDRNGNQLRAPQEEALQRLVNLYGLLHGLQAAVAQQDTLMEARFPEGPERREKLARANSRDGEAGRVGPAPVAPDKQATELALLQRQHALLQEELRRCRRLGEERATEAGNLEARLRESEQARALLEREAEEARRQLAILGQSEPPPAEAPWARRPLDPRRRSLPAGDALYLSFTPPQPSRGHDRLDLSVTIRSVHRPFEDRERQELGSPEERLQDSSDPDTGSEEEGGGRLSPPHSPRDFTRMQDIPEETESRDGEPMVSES

[5] = test system: GEF-H1; assay: SRE / αSMA promoter luciferase reporter gene assays of GEF-H1 signalling; assay type: cell-based; conditions: GEF-H1 overexpression
[6] = target: T2, p114RhoGEF (Homo sapiens, UniProt Q6ZSZ5); assay: p114RhoGEF-induced cell rounding in MDCK cells (specificity); assay type: cell-based
T2 sequence (Q6ZSZ5 1-1015 isoform Q6ZSZ5-2): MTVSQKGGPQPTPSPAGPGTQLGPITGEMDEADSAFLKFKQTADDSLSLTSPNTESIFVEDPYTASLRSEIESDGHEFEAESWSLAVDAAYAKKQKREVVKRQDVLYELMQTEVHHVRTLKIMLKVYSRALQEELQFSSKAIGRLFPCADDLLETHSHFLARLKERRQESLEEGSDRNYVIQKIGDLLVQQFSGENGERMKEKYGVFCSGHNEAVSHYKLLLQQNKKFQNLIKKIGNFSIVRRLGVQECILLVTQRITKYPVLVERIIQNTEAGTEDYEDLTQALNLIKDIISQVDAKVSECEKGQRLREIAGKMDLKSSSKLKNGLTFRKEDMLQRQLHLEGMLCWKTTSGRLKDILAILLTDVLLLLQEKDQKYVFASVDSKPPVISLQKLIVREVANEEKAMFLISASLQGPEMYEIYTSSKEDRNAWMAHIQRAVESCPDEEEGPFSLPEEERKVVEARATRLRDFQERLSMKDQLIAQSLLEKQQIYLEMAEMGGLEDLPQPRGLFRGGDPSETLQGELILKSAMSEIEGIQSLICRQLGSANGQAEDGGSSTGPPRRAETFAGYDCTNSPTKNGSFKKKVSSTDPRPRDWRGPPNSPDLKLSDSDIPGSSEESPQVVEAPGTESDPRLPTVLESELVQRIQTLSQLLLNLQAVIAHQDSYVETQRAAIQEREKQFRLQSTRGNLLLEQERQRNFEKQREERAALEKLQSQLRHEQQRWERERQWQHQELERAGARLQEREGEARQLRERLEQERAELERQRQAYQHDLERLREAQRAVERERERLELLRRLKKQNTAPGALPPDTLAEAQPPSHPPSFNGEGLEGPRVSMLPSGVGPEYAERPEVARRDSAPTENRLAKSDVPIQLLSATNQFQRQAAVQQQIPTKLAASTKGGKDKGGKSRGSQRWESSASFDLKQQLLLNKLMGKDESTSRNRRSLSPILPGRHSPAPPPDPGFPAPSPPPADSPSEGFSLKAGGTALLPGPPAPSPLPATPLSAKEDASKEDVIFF

[7] = test system: active Dbl; assay: αSMA / SRE reporter assays in cells overexpressing active Dbl (specificity); assay type: cell-based; conditions: TAT-F1 4 μM
[8] = test system: primary retinal pigment epithelial (RPE) cells; assay: TGF-β stimulation of primary RPE cells (αSMA induction, junctional markers); assay type: cell-based
Method: Inhibition of TGF-β signaling in primary retinal pigment epithelial (RPE) cells. (A, B) Primary RPE cells were incubated with TAT-P5 or TAT-F1 and stimulated with TGF-β for five days. (A) αSMA and, as a loading control, tubulin expression were analysed by immunoblotting. […] (B) Expression of the junctional marker ZO-1 and tubulin were determined. (C) Primary RPE cells were incubated with TGF-β as in (A) but with stapled-P5, and expression of αSMA positive cells was analysed by immunofluorescence.
7) The inventors next tested the inhibitors in cell-based disease models. GEF-H1 drives fibrotic and degenrative responses in the RPE, which can be modelled by treating primary RPE cells with TGF-β.

[9] = test system: Human primary endothelial cells; assay: LPS-induced endothelial activation; assay type: cell-based
Description: GEF-H1 inhibitors prevent endothelial inflammatory responses induced by LPS. Human primary endothelial cells were stimulated with LPS in the presence or absence of the indicated GEF-H1 inhibitors. […] TAT-P5 and TAT-F1 attenuate cytoskeletal remodelling, ICAM1 induction, and attenuate loss of barrier function.
8) GEF-H1 regulates inflammatory responses in various cell types. […] Similarly, cytoskeletal remodeling and cell junction disruption was also attenuated in TNFα and Thrombin-stimulated endothelial cells.

[10] = stapled-P5, different concentrations analysed

For CC(C)C[C@H](NC(=O)[C@@H](N)CCCNC(=N)N)C(=O)NC1(C)CCCC=CCCCC(C)(C(=O)N2CCC[C@H]2C(=O)N[C@@H](CC(=O)O)C(=O)N[C@H](C(=O)O)[C@@H](C)O)NC(=O)[C@H](CO)NC(=O)[C@H](C)NC(=O)[C@@H]2CCCN2C1=O (stereo partly shown) [stapled-P5, RL(X)PAS(X)PDT; X = 2,(4, pentenyl)alanine] (H-RL[ξαMeNle(6-ylidene)]PAS[ξαMeNle(6-ylidene)]PDT-OH; staple 3-7), the “cell toxicity by release of LDH in the medium” value (shortened to “cell toxicity by release of LDH”) [1, 10] was “No significant cell toxicity” and the “cell toxicity by caspase 3/7 activity in cell extracts” value (“cell toxicity by caspase 3/7 activity” for short) [2, 10] was “No significant cell toxicity”.

“GQEDYDRLRPASYPDTDVI (P5 amino acid sequence) [Peptide P5]” was tested, and the “inhibition of the interaction between RhoA and constitutively active GEF-H1” value [3] was “inhibited the interaction” and the “inhibition of overexpressed GEF-H1, comparison of P1 to P5” value ([4]; morphological assay (cell spreading) and SRE-driven reporter assay, peptide transfection) was “most effective inhibitor”.

In the case of “GRKKRRQRRRPWQGQEDYDRLRPASYPDTDVI [TAT-P5]”, the “cell toxicity by release of LDH” value ([1]; TAT-P5 5-20 μM) is reported as “No significant cell toxicity” and the “cell toxicity by caspase 3/7 activity” value ([2]; TAT-P5 5-20 μM) is reported as “No significant cell toxicity”.

B1: TAT-F1: F1 fused to a TAT sequence to render it membrane-permeable, SEQ ID NO: 7 (protein)
chain: MGGYGRKKRRQRRRGGGSGYPYDVPDYAGGSSSREDFPLIETEDEAYLRRIKMELQQKDKALVELLREKVGLFAEMTHFQVEEDSGGVALPALPRGLFRSESLECPRGERLLQDAIREVEGLKDLLVGPGVELLLTPRDPALLVDPDSGGSTSPGVTANGEARN
modifications: TAT-F1 amino acid sequence
In the case of B1, the “transcription of the SRE-containing alpha-smooth muscle actin (αSMA) promoter” value [5] is reported as “inhibit transcription”, the “inhibition of p114RhoGEF overexpression-induced cell rounding” value [6] is reported as “not inhibited” and the “transcription from the αSMA promoter in cells overexpressing active Dbl” value [7] is reported as “do not inhibit transcription”. The “cell toxicity by release of LDH” value ([1]; TAT-F1 1-4 μM) was “No significant cell toxicity”, the “cell toxicity by caspase 3/7 activity” value ([2]; TAT-F1 1-4 μM) was “No significant cell toxicity” and the “downregulation of junctional markers” value ([8]; primary RPE cells treated with TGF-β, FIG. 11) was “inhibit downregulation”. For the same molecule, the “TGF-β-induced induction of αSMA, a marker of epithelial fibrosis” value ([8]; primary RPE cells, FIG. 11) was “effectively suppress”, the “TGF-β induced αSMA expression normalised by tubulin (immunoblot)” value ([8]; primary RPE cells, TGF-β for five days) was “concentration-dependent repression” and the “LPS-induced ICAM1 induction” value ([9]; immunoblotting) was “attenuate”. The LPS-induced cytoskeletal remodelling ([9]; immunofluorescence) was “attenuate” and the “LPS-induced loss of barrier function” value ([9]; paracellular permeability) was “attenuate”.

B2: F1: Fragment 1 of the auto-inhibitory C-terminal domain (CTD) of GEF-H1, SEQ ID NO: 2 (protein)
chain: SREDFPLIETEDEAYLRRIKMELQQKDKALVELLREKVGLFAEMTHFQVEEDSGGVALPALPRGLFRSESLECPRGERLLQDAIREVEGLKDLLVGPGVELLLTPRDPALLVDPDSGGSTSPGVTANGEARN
modifications: F1 amino acid sequence
In the case of B2, the “inhibition of the interaction between RhoA and constitutively active GEF-H1” value [3] is reported as “inhibited the interaction” and the “auto-inhibitory activity / block of GEF-H1 function by CTD fragments” value ([4]; FIGS. 4 and 5 (cell spreading, SRE reporter, pulldown)) is reported as “blocks GEF-H1 function”.
